In paper PMC4976026 (The Journal of allergy and clinical immunology, 2016):

Target: T1, tGFP-tagged Rab27a R82C (human, UniProt P51159 1-221, R82C)
T1 sequence (looked up): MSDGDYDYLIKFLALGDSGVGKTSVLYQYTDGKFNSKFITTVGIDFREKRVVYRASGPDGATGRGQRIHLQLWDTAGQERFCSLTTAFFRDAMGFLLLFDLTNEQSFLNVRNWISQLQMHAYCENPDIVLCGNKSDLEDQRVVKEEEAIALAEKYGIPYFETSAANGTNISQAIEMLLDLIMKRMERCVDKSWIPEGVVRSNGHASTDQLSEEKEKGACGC
Test: co-IP

B1: melanophilin (natural protein, human (endogenous in mel1106), UniProt Q9BV36 1-600, looked up)
chain: MGKKLDLSKLTDEEAQHVLEVVQRDFDLRRKEEERLEALKGKIKKESSKRELLSDTAHLNETHCARCLQPYQLLVNSKRQCLECGLFTCKSCGRVHPEEQGWICDPCHLARVVKIGSLEWYYEHVKARFKRFGSAKVIRSLHGRLQGGAGPELISEERSGDSDQTDEDGEPGSEAQAQAQPFGSKKKRLLSVHDFDFEGDSDDSTQPQGHSLHLSSVPEARDSPQSLTDESCSEKAAPHKAEGLEEADTGASGCHSHPEEQPTSISPSRHGALAELCPPGGSHRMALGTAAALGSNVIRNEQLPLQYLADVDTSDEESIRAHVMASHHSKRRGRASSESQIFELNKHISAVECLLTYLENTVVPPLAKGLGAGVRTEADVEEEALRRKLEELTSNVSDQETSSEEEEAKDEKAEPNRDKSVGPLPQADPEVGTAAHQTNRQEKSPQDPGDPVQYNRTTDEELSELEDRVAVTASEVQQAESEVSDIESRIAALRAAGLTVKPSGKPRRKSNLPIFLPRVAGKLGKRPEDPNADPSSEAKAMAVPYLLRRKFSNSLKSQGKDDDSFDRKSVYRGSLTQRNPNARKGMASHTFAKPVVAHQS
With B1 the “fold melanophilin coprecipitated relative to Rab27a D74H” value was 2.7 ± 1.4 fold.
